In the Human Domainome abundance scans (Beltran et al. 2025):

B1: Dynamin-binding protein, residues 242 to 304; numbered along this chain, Q6XZF7 (parent)
chain: EEPGTYGVALYRFQALEPNELDFEVGDKIRILATLEDGWLEGSLKGRTGIFPYRFVKLCPDTR

Variants of: B1
Assay: abundance fitness (aPCA) (normalised: wild type 0, dead -1); higher = more abundant; growth selection in yeast, the domain comes from the species named
Conditions: Homo sapiens

Abundance fitness of substitutions, site by site:
D61: E 0.186; C -0.112; W -0.195; T -0.08; Q -0.178; L -0.185; P -0.027; M -0.144; I -0.237; G -0.063; Y -0.391; K -0.096; H -0.145; F -0.247; A -0.095
P52: S -0.85; W -0.583; Y -0.569; T -0.783; V -0.816
T62: F -0.137; R -0.046; L -0.214; H 0.044; E -0.004; G 0.046; K -0.267; C -0.198; I -0.034; P 0.079; A -0.022; Q -0.092; N 0.105; D 0.021
L58: P -0.379; A -0.594; R -0.12; V -0.064; Q -0.656; N -0.914; S -0.64; Y -0.473; C -0.409; D -0.366; T -0.301; E -0.708; F -0.186; M -0.032; I -0.055; K -0.55
P60: V -0.174; T 0.088; Q 0.087; F -0.149; K 0.054; C -0.15; N -0.26; Y -0.113; E -0.076; L -0.434; W -0.274; R -0.245; G 0.003; I -0.18; M -0.317; A -0.059
C59: D -0.198; K -0.086; I 0.038; E -0.109; Q 0.117; T -0.192; W -0.324; L -0.049; V 0.024; R -0.339; G -0.225; F 0.006; H -0.227; Y 0.007; P -0.546; N -0.393
K57: A -0.318; Q -0.062; W -0.677; T -0.167; V -0.637; C -0.406; F -0.697; S -0.088; I -0.576; Y -0.411; P -0.746; R -0.041; L -0.562; D -0.257; E -0.6; G -0.58; H -0.136
Y53: H -0.006; D 0.227; K 0.251; M 0.265; V 0.263; T 0.223; Q 0.154; P 0.37; R 0.211; W 0.108; I 0.048; L 0.077; F -0.079; C 0.203; N 0.138; S 0.329; E 0.282; A 0.338
R54: D -0.052; M -0.583; Q -0.008; I -0.545; S 0.046; A -0.049; E -0.057; H 0.027; Y -0.286; N 0.238; C -0.373; P -0.525; F -0.261; V -0.07; T -0.24; G -0.034; L -0.544; W -0.292
F55: S -0.348; H -0.189; Q -0.774; C -0.075; Y 0.079; T -0.472; E -0.67; K -0.748; A -0.091; V -0.614; N -0.399; W -0.374; D -0.621; P -0.818; L -0.126; R -0.621
V56: H -0.696; N -0.711; C -0.864; T -0.594; Y -0.535; F -0.525; P -0.334; L -0.412; Q -0.664; W -0.826; S -0.719; A -0.521; D -0.716; R -0.887; I -0.141; G -0.729
